B1: EPB41L3 (parent)
chain: SELGDYDPDECGSDYISEFRFAPN

Variants of: B1
Experiment: protein stability index of a GFP-peptide fusion (GPS, HEK-293T) (PSI 1-6); higher = more stable
Conditions: c terminus: a fixed tail appended
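Further: lentivirally expressed fusions sorted by FACS into six bins by GFP to DsRed ratio, PSI derived from sequencing read proportions per bin multiplied by bin number.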

| Variant | protein stability index |
| --- | --- |
| SGLGDYDPDECGSDYISEFRFAPN [E2G] | 1.03 |
| SELGDYDPTECGSDYISEFRFAPN [D9T] | 1.47 |
| SELGDYDPFECGSDYISEFRFAPN [D9F] | 1.95 |
| SELGDYDPAECGSDYISEFRFAPN [D9A] | 1.93 |
| SELGDYDPPECGSDYISEFRFAPN [D9P] | 1.41 |
| SELGDYDPGECGSDYISEFRFAPN [D9G] | 2.03 |
| SELGDYDPVECGSDYISEFRFAPN [D9V] | 1.87 |
| SELGDYDPIECGSDYISEFRFAPN [D9I] | 1.32 |
| SELGDYDPMECGSDYISEFRFAPN [D9M] | 2.01 |
| SELGDYDPSECGSDYISEFRFAPN [D9S] | 2.01 |
| SELGDYDPNECGSDYISEFRFAPN [D9N] | 1.55 |
| SELGDYDPYECGSDYISEFRFAPN [D9Y] | 1.99 |
| SELGDYDPWECGSDYISEFRFAPN [D9W] | 1.63 |
| SELGDYDPRECGSDYISEFRFAPN [D9R] | 2.12 |
| SELGDYDPCECGSDYISEFRFAPN [D9C] | 1.92 |
| SELGDYDPQECGSDYISEFRFAPN [D9Q] | 2.25 |
| SELGDYDPHECGSDYISEFRFAPN [D9H] | 1.92 |
| SELGDYDPLECGSDYISEFRFAPN [D9L] | 1.84 |
| SELGDYDPKECGSDYISEFRFAPN [D9K] | 2.05 |
| SELGDYDPEECGSDYISEFRFAPN [D9E] | 2.4 |
| SELGYYDPDECGSDYISEFRFAPN [D5Y] | 2.09 |
| SELGNYDPDECGSDYISEFRFAPN [D5N] | 1.99 |
| SELGEYDPDECGSDYISEFRFAPN [D5E] | 1.7 |
| SELGRYDPDECGSDYISEFRFAPN [D5R] | 2.05 |

| Variant | protein stability index |
| --- | --- |
| SELGWYDPDECGSDYISEFRFAPN [D5W] | 1.74 |
| SELGIYDPDECGSDYISEFRFAPN [D5I] | 1.87 |
| SELGLYDPDECGSDYISEFRFAPN [D5L] | 1.92 |
| SELGPYDPDECGSDYISEFRFAPN [D5P] | 2.35 |
| SELGFYDPDECGSDYISEFRFAPN [D5F] | 1.68 |
| SELGQYDPDECGSDYISEFRFAPN [D5Q] | 1.75 |
| SELGKYDPDECGSDYISEFRFAPN [D5K] | 2.17 |
| SELGMYDPDECGSDYISEFRFAPN [D5M] | 1.71 |
| SELGVYDPDECGSDYISEFRFAPN [D5V] | 1.51 |
| SELGTYDPDECGSDYISEFRFAPN [D5T] | 2.03 |
| SELGCYDPDECGSDYISEFRFAPN [D5C] | 2.06 |
| SELGHYDPDECGSDYISEFRFAPN [D5H] | 1.79 |
| SELGAYDPDECGSDYISEFRFAPN [D5A] | 1.96 |
| SELGGYDPDECGSDYISEFRFAPN [D5G] | 2.26 |
| SELGSYDPDECGSDYISEFRFAPN [D5S] | 1.75 |
| SELGDYNPDECGSDYISEFRFAPN [D7N] | 1.68 |
| SELGDYGPDECGSDYISEFRFAPN [D7G] | 2.29 |
| SELGDYVPDECGSDYISEFRFAPN [D7V] | 1.61 |
| SELGDYPPDECGSDYISEFRFAPN [D7P] | 2.31 |
| SELGDYYPDECGSDYISEFRFAPN [D7Y] | 1.7 |
| SELGDYIPDECGSDYISEFRFAPN [D7I] | 1.65 |
| SELGDYTPDECGSDYISEFRFAPN [D7T] | 1.57 |
| SELGDYRPDECGSDYISEFRFAPN [D7R] | 2.44 |
| SELGDYEPDECGSDYISEFRFAPN [D7E] | 3.01 |

| Variant | protein stability index |
| --- | --- |
| SELGDYLPDECGSDYISEFRFAPN [D7L] | 1.56 |
| SELGDYSPDECGSDYISEFRFAPN [D7S] | 1.47 |
| SELGDYKPDECGSDYISEFRFAPN [D7K] | 1.14 |
| SELGDYWPDECGSDYISEFRFAPN [D7W] | 2.1 |
| SELGDYHPDECGSDYISEFRFAPN [D7H] | 2.14 |
| SELGDYCPDECGSDYISEFRFAPN [D7C] | 1.71 |
| SELGDYMPDECGSDYISEFRFAPN [D7M] | 1.93 |
| SELGDYQPDECGSDYISEFRFAPN [D7Q] | 1.37 |
| SELGDYAPDECGSDYISEFRFAPN [D7A] | 1.91 |
| SELGDYFPDECGSDYISEFRFAPN [D7F] | 2.29 |
| SELGDYDPDTCGSDYISEFRFAPN [E10T] | 1.85 |
| SELGDYDPDCCGSDYISEFRFAPN [E10C] | 2.38 |
| SELGDYDPDACGSDYISEFRFAPN [E10A] | 1.88 |
| SELGDYDPDMCGSDYISEFRFAPN [E10M] | 1.75 |
| SELGDYDPDNCGSDYISEFRFAPN [E10N] | 1.9 |
| SELGDYDPDICGSDYISEFRFAPN [E10I] | 1.45 |
| SELGDYDPDLCGSDYISEFRFAPN [E10L] | 1.61 |
| SELGDYDPDQCGSDYISEFRFAPN [E10Q] | 1.84 |
| SELGDYDPDGCGSDYISEFRFAPN [E10G] | 1.78 |
| SELGDYDPDRCGSDYISEFRFAPN [E10R] | 2.26 |
| SELGDYDPDHCGSDYISEFRFAPN [E10H] | 1.5 |
| SELGDYDPDVCGSDYISEFRFAPN [E10V] | 2.06 |
| SELGDYDPDKCGSDYISEFRFAPN [E10K] | 1.85 |
| SELGDYDPDFCGSDYISEFRFAPN [E10F] | 1.55 |

| Variant | protein stability index |
| --- | --- |
| SELGDYDPDDCGSDYISEFRFAPN [E10D] | 1.81 |
| SELGDYDPDSCGSDYISEFRFAPN [E10S] | 1.85 |
| SELGDYDPDPCGSDYISEFRFAPN [E10P] | 2.04 |
| VELGDYDPDECGSDYISEFRFAPN [S1V] | 2.25 |
| MELGDYDPDECGSDYISEFRFAPN [S1M] | 2.8 |
| NELGDYDPDECGSDYISEFRFAPN [S1N] | 1.81 |
| GELGDYDPDECGSDYISEFRFAPN [S1G] | 1.99 |
| QELGDYDPDECGSDYISEFRFAPN [S1Q] | 2.87 |
| WELGDYDPDECGSDYISEFRFAPN [S1W] | 1.53 |
| IELGDYDPDECGSDYISEFRFAPN [S1I] | 1.71 |
| FELGDYDPDECGSDYISEFRFAPN [S1F] | 1.86 |
| YELGDYDPDECGSDYISEFRFAPN [S1Y] | 3.03 |
| CELGDYDPDECGSDYISEFRFAPN [S1C] | 1.88 |
| KELGDYDPDECGSDYISEFRFAPN [S1K] | 2.35 |
| EELGDYDPDECGSDYISEFRFAPN [S1E] | 2.29 |
| RELGDYDPDECGSDYISEFRFAPN [S1R] | 1.85 |
| DELGDYDPDECGSDYISEFRFAPN [S1D] | 2.43 |
| PELGDYDPDECGSDYISEFRFAPN [S1P] | 1.89 |
| HELGDYDPDECGSDYISEFRFAPN [S1H] | 1.67 |
| AELGDYDPDECGSDYISEFRFAPN [S1A] | 1.81 |
| TELGDYDPDECGSDYISEFRFAPN [S1T] | 2.5 |
| LELGDYDPDECGSDYISEFRFAPN [S1L] | 2.02 |

Reference: the supplement of paper PMC10567573
